{
  "source": "patent US20220288204A1",
  "about": "“DOSAGE AND ADMINISTRATION OF ANTI-ERBB3 (HER3) MONOCLONAL ANTIBODIES TO TREAT TUMORS ASSOCIATED WITH NEUREGULIN 1 (NRG1) GENE FUSIONS” (ELEVATION ONCOLOGY, INC., priority 2021, published 2022)",
  "molecules": {"B1": {"name": "seribantumab: anti-ERBB3 (HER3) fully human monoclonal antibody; heavy and light chains SEQ ID NOs: 12 and 13 (antibody)", "heavy": "EVQLLESGGGLVQPGGSLRLSCAASGFTFSHYVMAWVRQAPGKGLEWVSSISSSGGWTLYADSVKGRFTISRDNSKNTLYLQMNSLRAEDTAVYYCTRGLKMATIFDYWGQGTLVTVSSASTKGPSVFPLAPCSRSTSESTAALGCLVKDYFPEPVTVSWNSGALTSGVHTFPAVLQSSGLYSLSSVVTVPSSNFGTQTYTCNVDHKPSNTKVDKTVERKCCVECPPCPAPPVAGPSVFLFPPKPKDTLMISRTPEVTCVVVDVSHEDPEVQFNWYVDGVEVHNAKTKPREEQFNSTFRVVSVLTVVHQDWLNGKEYKCKVSNKGLPAPIEKTISKTKGQPREPQVYTLPPSREEMTKNQVSLTCLVKGFYPSDIAVEWESNGQPENNYKTTPPMLDSDGSFFLYSKLTVDKSRWQQGNVFSCSVMHEALHNHYTQKSLSLSPGK", "light": "QSALTQPASVSGSPGQSITISCTGTSSDVGSYNVVSWYQQHPGKAPKLIIYEVSQRPSGVSNRFSGSKSGNTASLTISGLQTEDEADYYCCSYAGSSIFVIFGGGTKVTVLGQPKAAPSVTLFPPSSEELQANKATLVCLVSDFYPGAVTVAWKADGSPVKVGVETTKPSKQSNNKYAASSYLSLTPEQWKSHRSYSCRVTHEGSTVEKTVAPAECS"}},
  "key": {"[1]": {"system": "HER3 and AKT phosphorylation in H6c7-SLC3A2-NRG1 cells", "assay": "Western blotting of HER3 and AKT phosphorylation", "format": "cell-based, human", "conditions": "serum-starved 24 hours", "from_the_text": "(§1) H6C7-EV (empty vector) and H6C7-ATP1B1-NRG1 cells were profiled for activated intracellular kinases using phospho-proteomic arrays (FIG. 7A). H6C7-EV and H6C7 cells with the indicated NRG1 fusions were profiled for activated receptor tyrosine kinases (RTK) using phospho-RTK arrays (FIG. 7B). Quantitation of phosphorylated EGFR, HER2, and HER3 is shown (FIG. 7C). Western blot analysis of cell extracts from H6C7-EV and H6C7 cells expressing NRG1 fusions (FIGS. 7D-E). […] All cells were serum-started for 24 hours prior to experimentation.\n(§2) Models of isogenic pancreatic cancer cells with NRG1 fusions by lentiviral-mediated cDNA expression of ATP1B1-NRG1 and SLC3A2-NRG1 fusions in immortalized human pancreatic ductal cells (H6c7) were developed. […] Western blotting analysis was used to evaluate protein phosphorylation and expression. The presence of NRG1 fusions was confirmed by reverse transcription polymerase chain reaction (RT-PCR) and next-generation sequencing (NGS).\n(§3) There was no regression of afatinib-treated pancreatic PDX tumors. […] This was confirmed using a human-specific GAPH antibody."}, "[2]": {"system": "HER3 and AKT phosphorylation in H6c7-ATP1B1-NRG1 cells", "assay": "Western blotting of HER3 and AKT phosphorylation", "format": "cell-based, human", "conditions": "serum-starved 24 hours", "from_the_text": "as §1, §2, §3"}, "[3]": {"system": "HER2, HER3, AKT, ERK1/2 phosphorylation and BIM in LUAD-0061AS3 PDX tumors", "assay": "Western blotting of PDX tumor lysates after single administration", "format": "in vivo, mice", "procedure": "(§4) Characterization of the […] PDX model. H&E staining, TTF-1, and phospho-HER3 IHC (FIG. 5A, left to right). […] (FIG. 5B). Tumor volumes were measured twice weekly and plotted overtime. Results represent the mean±SEM. […] Western blotting was performed twice for each protein and representative immunoblots of phosphorylated (p) and total (t) proteins are shown (FIG. 5C).\n(§5) Crushed PDX tumor samples were mixed with Matrigel (50%) and injected into the subcutaneous flank of 6-week-old female NSG (LUAD-0061AS3) or Balb/c nude (OV-10-0050) mice. When tumors reached approximately 100-150 mm3, mice were randomly assigned to groups of 5-8 and treatment was commenced. There were 2 mice per group with bilateral flank tumors for the protein phosphorylation/expression study in the LUAD-0061AS3 PDX model. Drugs were administered once, and then tumors were collected at 2, 24, and 168 hours posttreatment. Afatinib was administered by oral gavage once daily as a suspension (in 0.5% methylcellulose-0.4% Tween-80) on a 5-days-on and 2-days-off schedule. […] Mice were observed daily throughout the treatment period for signs of morbidity and mortality. Tumor length and width and animal weights were measured twice weekly. Tumor volume was calculated using the empirical formula V=length×width 2×0.52. The percentage change in tumor volume of each tumor was calculated using the formula [(V2−V1)/V1)]×100, where V1 is the starting tumor volume and V2 is the final tumor volume.\nProtein phosphorylation was then detected by Western blotting of PDX tumor lysates."}, "HBECp53-CD74-NRG1 cells": {"system": "HBECp53-CD74-NRG1 cells", "assay": "Time-course growth by cell counting", "format": "cell-based, human", "conditions": "highest concentration of seribantumab", "procedure": "Expression of […] (FIG. 1A) or SLC3A2-NRG1 (FIG. 2B) fusions in MDA-MB-175-VII and LUAD-0061AS3 cells, respectively, was determined by RT-PCR. The HBECp53 (NRG1 fusion negative) and HBECp53-SLC3A2-NRG1 cells were used as negative and positive controls, respectively. […] Viability results represent the mean±SEM of 2-5 independent experiments in which each condition was assayed in triplicate determinations. Viability data were analyzed by nonlinear regression and the IC50 values for growth inhibition and the 95% confidence interval were determined with GraphPad Prism 8. […] Results represent the mean±SD for one experiment in which each condition was assayed in duplicate.\nFor the time-course experiments, cells were plated at a density of 5,000 (HCC-95) or 10,000 (all others) cells per well in 12-well tissue culture plates, and then treated 24 hours later (time 0) with the respective agents. […] Cells were trypsinized and counted at the relevant time-point shown on the graphs. For dose-response studies, cells were plated at a density of 7,500-10,000 cells in white clear-bottom 96-well plates in a volume of […] complete growth media and […] chemicals added at 10× concentration (to achieve 1× concentration) in a final volume of […]. After 96-hour incubation, […] AlamarBlue cell viability reagent was added to achieve a final concentration of 10%. AlamarBlue is a cell permeable […] dye that is reduced when it enters the mitochondria and emits fluorescence at a different wavelength (Gloeckner H, J. Immunol. Methods 2001; 252:131-8). Fluorescence was measured (excitation, 530 nm and emission, 585 nm) using a […] Spectramax M2 Fluorescence Plate Reader, as described previously (Somwar R, J. Biomol. Screen 2009; 14:1176-84). In each experiment, background fluorescence was determined in cells treated with […] of the 20S proteasome inhibitor, carfilzomib, which is toxic to most cells at high concentrations, and was subtracted from all values. There were 3-4 replicates of each condition. Relative IC50 values and 95% confidence interval values were determined by nonlinear regression analysis using GraphPad Prism 8 software using either a variable slope model or in cases where inhibition was only partial, a three-parameter fit was used. […] Each condition was assayed in triplicate in 2-5 independent experiments.\nIn these experiments, the MDA-MB-175 and LUAD-0061AS3 cell lines, isogenic HBECp53 cells ectopically expressing a CD74-NRG1 fusion, and the NRG1-amplified lung cancer cell line, HCC-95 (FIGS. 1E-H) were used. […] Afatinib sensitivity of HCC-95 cells was not examined in this study."}, "[4]": {"system": "HER2, HER3, EGFR and downstream effectors in HCC-95 cells", "assay": "Western blotting of protein phosphorylation", "format": "cell-based, human", "from_the_text": "These events likely culminate in inhibition of growth and impaired survival."}, "LUAD-0061AS3 PDX tumors": {"system": "LUAD-0061AS3 PDX tumors", "assay": "NSCLC PDX model efficacy (SLC3A2-NRG1)", "format": "in vivo, mice", "procedure": "as §4, §5\nThe 5 mg/kg daily dose of afatinib is equivalent to the human dose of […] daily, which is the maximum approved dose for patients.\nThe tumor volume as a function of time is illustrated in FIG. 5B, and the AUC computed for each group to facilitate comparison of tumor volume between groups at the last date all groups had surviving animals (day 35) was determined. […] The highest dose of afatinib (15 mg/kg) was also effective at causing regression of six of seven tumors in the."}},
  "note": "“Also recorded” adds a separate entry of the source.",
  "data": [
    {"molecule": "B1", "values": [
      {"measurement": "HER3 and AKT phosphorylation", "setting": "[1]", "result": "dose-dependent inhibition"},
      {"measurement": "HER3 and AKT phosphorylation", "setting": "[2]", "result": "dose-dependent inhibition"},
      {"measurement": "BIM expression in tumors", "setting": "[3]; 0.75 and 1 mg seribantumab, by 2 hours", "result": "higher levels of BIM than vehicle-treated tumors"},
      {"measurement": "phosphorylation of HER2, HER3, AKT, and ERK1/2 in tumors", "setting": "[3]; all doses of seribantumab (0.6, 0.75, 1 mg), single administration, 2-hour timepoint", "result": "reduced phosphorylation"},
      {"measurement": "BIM expression in tumors", "setting": "[3]; all doses of seribantumab, 168-hour timepoint", "result": "Elevated BIM was present"},
      {"measurement": "BIM expression in tumors", "setting": "[3]; all doses of seribantumab, after 24 hours", "result": "Induction of BIM expression was clearly seen"},
      {"measurement": "HER2 phosphorylation in tumors", "setting": "[3]; seribantumab higher doses, 168 hours", "result": "remained inhibited even after 168 hours"},
      {"measurement": "cell growth over time", "setting": "HBECp53-CD74-NRG1 cells", "result": "almost complete inhibition of growth"},
      {"measurement": "EGFR phosphorylation", "setting": "[4]", "result": "little effect"},
      {"measurement": "phosphorylation of HER2, HER3, and downstream effectors", "setting": "[4]", "result": "inhibited phosphorylation"},
      {"measurement": "tumors with regression", "setting": "LUAD-0061AS3 PDX tumors; 0.75 mg seribantumab twice weekly", "result": "four of seven"},
      {"measurement": "efficacy compared with afatinib", "setting": "LUAD-0061AS3 PDX tumors; 1 mg BIW seribantumab vs 15 mg/kg daily afatinib", "result": "as effective as the 15 mg/kg daily dose of afatinib; also recorded: as effective as the highest dose of afatinib"},
      {"measurement": "tumors with regression", "setting": "LUAD-0061AS3 PDX tumors; 1 mg seribantumab twice weekly", "result": "six of seven"},
      {"measurement": "maximum tumor reduction", "setting": "LUAD-0061AS3 PDX tumors; 1 mg seribantumab twice weekly, by day 42", "result": "57.2%±2.6%"},
      {"measurement": "tumor volume", "setting": "LUAD-0061AS3 PDX tumors; all doses of seribantumab tested (0.6, 0.75, 1 mg twice weekly)", "result": "bigger decrease in tumor volume"},
      {"measurement": "tumor regression", "setting": "LUAD-0061AS3 PDX tumors; dosage lower than that used in human trials", "result": "more than 50%"}
    ]}
  ]
}
